Substitutions are numbered along the chain they refer to.

What is called pKd is −log10 of the Kd, conventionally taken in molar units.

Targets include MAGI2_2, Q86UL8; GRASP, Q7Z6J2; GRIP2_7, Q9C0E4; PARD3_3, Q8TEW0; LDB3, O75112; SCRIB_1, Q14160; PDLIM1, O00151; DLG1_2, Q12959; DLG4_2, P78352; FRMPD3, Q5JV73.
What all share (assay): holdup assay
Set-up in all cases: key: below the threshold = too weak to quantify, mostly under pKd 3.1 to 4
Common to all, as to settings: plain residues with an end cap or a label only (N-terminal biotin on a linker: ado-ado)

The target in the next assay is T1, LIN7A, O14910.
T1 sequence (O14910 103-200, limits assumed, looked up): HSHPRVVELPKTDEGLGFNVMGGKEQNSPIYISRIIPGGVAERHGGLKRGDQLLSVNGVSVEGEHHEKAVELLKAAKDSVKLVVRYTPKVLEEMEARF

For another assay, the target named is T2, DFNB31_2, Q9P202.
T2 sequence (Q9P202 274-371, limits assumed, looked up): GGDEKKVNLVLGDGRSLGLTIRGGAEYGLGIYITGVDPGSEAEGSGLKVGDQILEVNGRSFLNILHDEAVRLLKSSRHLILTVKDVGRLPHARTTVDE

The target of another assay is T3, APBA1_1, Q02410.
T3 sequence (Q02410 651-752, limits assumed, looked up): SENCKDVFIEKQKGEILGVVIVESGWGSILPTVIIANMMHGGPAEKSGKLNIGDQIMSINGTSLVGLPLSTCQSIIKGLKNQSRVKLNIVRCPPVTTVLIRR

The target of another assay is T4, DFNB31_1, Q9P202.
T4 sequence (Q9P202 135-233, limits assumed, looked up): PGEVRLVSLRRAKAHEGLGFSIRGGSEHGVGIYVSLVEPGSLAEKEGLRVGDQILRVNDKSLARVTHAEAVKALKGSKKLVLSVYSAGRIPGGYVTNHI

A further assay addresses T5, PDZD7_3, Q9H5P4.
T5 sequence (Q9H5P4 857-944, limits assumed, looked up): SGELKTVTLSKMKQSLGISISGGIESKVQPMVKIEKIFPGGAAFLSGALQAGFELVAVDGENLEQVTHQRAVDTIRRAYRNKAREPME

The target of the next assay is T6, HTRA3, P83110.
T6 sequence (P83110 354-453, limits assumed, looked up): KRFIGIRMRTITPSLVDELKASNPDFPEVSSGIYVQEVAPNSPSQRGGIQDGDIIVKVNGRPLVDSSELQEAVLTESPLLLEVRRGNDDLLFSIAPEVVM

The next assay addresses T7, PTPN13_1, Q12923.
T7 sequence (Q12923 1088-1188, limits assumed, looked up): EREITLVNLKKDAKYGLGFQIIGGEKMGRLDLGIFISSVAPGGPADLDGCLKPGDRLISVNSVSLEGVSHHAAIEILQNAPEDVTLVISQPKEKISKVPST

A further assay has as its target T8, DFNB31_3, Q9P202.
T8 sequence (Q9P202 811-907, limits assumed, looked up): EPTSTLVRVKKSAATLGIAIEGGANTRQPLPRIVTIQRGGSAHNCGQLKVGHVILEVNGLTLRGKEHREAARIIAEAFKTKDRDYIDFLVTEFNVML

For another assay, the target named is T9, CARD11, Q9BXL7.
T9 sequence (Q9BXL7 662-765, limits assumed, looked up): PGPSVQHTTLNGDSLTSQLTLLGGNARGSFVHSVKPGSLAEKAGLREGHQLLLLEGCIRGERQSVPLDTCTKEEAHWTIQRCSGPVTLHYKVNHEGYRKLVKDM

The next assay addresses T10, GRIP1_4, Q9Y3R0.
T10 sequence (Q9Y3R0 467-571, limits assumed, looked up): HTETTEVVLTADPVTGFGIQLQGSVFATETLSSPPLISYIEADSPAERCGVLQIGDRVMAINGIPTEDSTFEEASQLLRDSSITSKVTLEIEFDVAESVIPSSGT

The next assay addresses T11, LIN7B, Q9HAP6.
T11 sequence (Q9HAP6 88-185, limits assumed, looked up): T1 sequence (O14910 103-200, limits assumed, looked up) with S2A, V20I, I35V, E42D, H65Q, K77Q, D78G, K89R

In the next assay the target is T12, SNTA1, Q13424.
T12 sequence (Q13424 82-180, limits assumed, looked up): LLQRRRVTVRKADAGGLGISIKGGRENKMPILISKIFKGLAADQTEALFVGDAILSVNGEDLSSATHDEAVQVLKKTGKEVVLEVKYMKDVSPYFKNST

In another assay the target is T13, TIAM2, Q8IVF5.
T13 sequence (Q8IVF5 885-986, limits assumed, looked up): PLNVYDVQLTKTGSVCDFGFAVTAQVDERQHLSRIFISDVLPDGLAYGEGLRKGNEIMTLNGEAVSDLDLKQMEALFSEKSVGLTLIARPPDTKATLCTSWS

A further assay addresses T14, DVL3, Q92997.
T14 sequence (Q92997 244-331, limits assumed, looked up): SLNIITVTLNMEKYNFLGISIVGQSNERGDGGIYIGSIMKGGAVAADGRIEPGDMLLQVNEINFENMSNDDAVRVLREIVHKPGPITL

Sequence of DLG1_2, Q12959 (Q12959 314-412): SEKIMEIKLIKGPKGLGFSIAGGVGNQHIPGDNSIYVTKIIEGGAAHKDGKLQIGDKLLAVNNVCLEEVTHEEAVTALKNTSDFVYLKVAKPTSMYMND
Sequence of GRASP, Q7Z6J2 (Q7Z6J2 96-193): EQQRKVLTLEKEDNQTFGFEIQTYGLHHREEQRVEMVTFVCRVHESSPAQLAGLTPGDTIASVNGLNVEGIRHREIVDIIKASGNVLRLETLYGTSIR
Sequence of FRMPD3, Q5JV73 (Q5JV73 12-100): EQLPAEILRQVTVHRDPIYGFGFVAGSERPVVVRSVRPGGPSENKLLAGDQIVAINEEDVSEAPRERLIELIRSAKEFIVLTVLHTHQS
Sequence of PARD3_3, Q8TEW0 (Q8TEW0 582-685): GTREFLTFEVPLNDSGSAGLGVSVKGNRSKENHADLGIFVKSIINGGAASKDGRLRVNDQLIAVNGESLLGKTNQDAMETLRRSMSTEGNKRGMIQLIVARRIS
Sequence of DLG4_2, P78352 (P78352 155-259): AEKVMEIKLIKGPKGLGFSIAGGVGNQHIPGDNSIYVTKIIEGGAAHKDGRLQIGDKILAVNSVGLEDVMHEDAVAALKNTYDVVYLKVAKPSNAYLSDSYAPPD
Sequence of LDB3, O75112 (O75112 1-94): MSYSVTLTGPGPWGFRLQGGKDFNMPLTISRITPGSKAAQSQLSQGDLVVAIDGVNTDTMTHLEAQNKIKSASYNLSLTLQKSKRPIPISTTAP
Sequence of MAGI2_2, Q86UL8 (Q86UL8 410-522): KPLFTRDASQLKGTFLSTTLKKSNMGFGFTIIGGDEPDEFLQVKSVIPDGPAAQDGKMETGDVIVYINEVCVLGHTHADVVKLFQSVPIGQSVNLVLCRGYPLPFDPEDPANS
Sequence of SCRIB_1, Q14160 (Q14160 718-814): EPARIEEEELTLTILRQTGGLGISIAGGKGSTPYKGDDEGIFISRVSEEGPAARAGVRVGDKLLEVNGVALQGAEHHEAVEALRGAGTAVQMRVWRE
Sequence of GRIP2_7, Q9C0E4 (Q9C0E4 934-1023): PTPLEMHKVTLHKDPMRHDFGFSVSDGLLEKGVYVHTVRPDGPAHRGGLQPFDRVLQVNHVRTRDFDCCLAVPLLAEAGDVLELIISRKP
Sequence of PDLIM1, O00151 (O00151 1-87): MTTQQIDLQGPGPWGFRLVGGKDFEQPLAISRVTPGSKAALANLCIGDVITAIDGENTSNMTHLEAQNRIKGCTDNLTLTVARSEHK

B1: YAP1, P46937 (peptide)
chain: LDKESFLTWL
For B1, the pKd with MAGI2_2, Q86UL8 is 3.55; with LIN7A, O14910 it was “below the threshold”; with DFNB31_2, Q9P202, “below the threshold”; with GRASP, Q7Z6J2, 5.31; with APBA1_1, Q02410, 4.06; with DFNB31_1, Q9P202, 3.77. Also, the pKd in the assay with GRIP2_7, Q9C0E4 was 4.05; in the assay with PARD3_3, Q8TEW0, 4.98; with PDZD7_3, Q9H5P4, 4.92; with HTRA3, P83110, 5.5; with PTPN13_1, Q12923 it was “below the threshold”; with DFNB31_3, Q9P202, 5.37. The pKd with LDB3, O75112 is 4.36; with SCRIB_1, Q14160 it was 4.47; with CARD11, Q9BXL7 it was 3.64; with GRIP1_4, Q9Y3R0, “below the threshold”; with LIN7B, Q9HAP6, 3.48; with PDLIM1, O00151, 4.1. Also, the negative logarithm of the Kd (pKd) entry was “below the threshold” with SNTA1, Q13424; “below the threshold” in the assay with DLG1_2, Q12959; 3.6 in the assay with TIAM2, Q8IVF5; “below the threshold” in the assay with DLG4_2, P78352; 4.4 with FRMPD3, Q5JV73; 4.64 with DVL3, Q92997.

B2: GOLT1A, Q6ZVE7 (peptide)
chain: RRLQGTSSMV
Regarding B2, the pKd is 4.69 in the assay with MAGI2_2, Q86UL8; “below the threshold” in the assay with LIN7A, O14910; “below the threshold” in the assay with DFNB31_2, Q9P202; 3.89 with GRASP, Q7Z6J2; “below the threshold” with APBA1_1, Q02410; “below the threshold” with DFNB31_1, Q9P202. The pKd entry is “below the threshold” with GRIP2_7, Q9C0E4; “below the threshold” with PARD3_3, Q8TEW0; “below the threshold” with PDZD7_3, Q9H5P4; 3.64 with HTRA3, P83110; “below the threshold” in the assay with PTPN13_1, Q12923; 3.66 in the assay with DFNB31_3, Q9P202. Also, the pKd result is “below the threshold” with LDB3, O75112; “below the threshold” in the assay with SCRIB_1, Q14160; “below the threshold” in the assay with CARD11, Q9BXL7; “below the threshold” with GRIP1_4, Q9Y3R0; 3.72 with LIN7B, Q9HAP6; “below the threshold” with PDLIM1, O00151. The pKd entry in the assay with SNTA1, Q13424 is “below the threshold”; with DLG1_2, Q12959, 4.71; with TIAM2, Q8IVF5 it was 4.03; in the assay with DLG4_2, P78352, 4.71; in the assay with FRMPD3, Q5JV73 it was “below the threshold”; with DVL3, Q92997, “below the threshold”.

B3: PKN2, Q16513 (peptide)
chain: RDFDYIADWC
Regarding B3, the pKd result was “below the threshold” with MAGI2_2, Q86UL8; “below the threshold” in the assay with LIN7A, O14910; “below the threshold” in the assay with DFNB31_2, Q9P202; 4.3 with GRASP, Q7Z6J2; 3.67 with APBA1_1, Q02410; 3.69 with DFNB31_1, Q9P202. Also, the pKd entry with GRIP2_7, Q9C0E4 was “below the threshold”; with PARD3_3, Q8TEW0, 3.76; with PDZD7_3, Q9H5P4 it was “below the threshold”; in the assay with HTRA3, P83110, 5.86; with PTPN13_1, Q12923 it was “below the threshold”; with DFNB31_3, Q9P202, “below the threshold”. The pKd result in the assay with LDB3, O75112 is “below the threshold”; with SCRIB_1, Q14160 it was “below the threshold”; in the assay with CARD11, Q9BXL7, “below the threshold”; with GRIP1_4, Q9Y3R0, “below the threshold”; in the assay with LIN7B, Q9HAP6 it was 3.9; with PDLIM1, O00151 it was “below the threshold”. In addition, the pKd result in the assay with SNTA1, Q13424 was “below the threshold”; with DLG1_2, Q12959, “below the threshold”; with TIAM2, Q8IVF5, 4.19; in the assay with DLG4_2, P78352 it was “below the threshold”; in the assay with FRMPD3, Q5JV73 it was 3.48; with DVL3, Q92997, “below the threshold”.

B4: SCN4A, P35499 (peptide)
chain: VRPGVKESLV
Regarding B4, the pKd with MAGI2_2, Q86UL8 is 5.2; in the assay with LIN7A, O14910, 3.94; in the assay with DFNB31_2, Q9P202, 3.95; with GRASP, Q7Z6J2, “below the threshold”; with APBA1_1, Q02410, “below the threshold”; with DFNB31_1, Q9P202, 3.73. Also, the pKd result with GRIP2_7, Q9C0E4 was “below the threshold”; with PARD3_3, Q8TEW0 it was “below the threshold”; in the assay with PDZD7_3, Q9H5P4, 5.05; with HTRA3, P83110, “below the threshold”; with PTPN13_1, Q12923 it was “below the threshold”; with DFNB31_3, Q9P202, “below the threshold”. Also, the pKd entry in the assay with LDB3, O75112 is “below the threshold”; with SCRIB_1, Q14160, 4.48; in the assay with CARD11, Q9BXL7, “below the threshold”; in the assay with GRIP1_4, Q9Y3R0, “below the threshold”; in the assay with LIN7B, Q9HAP6 it was 4.04; with PDLIM1, O00151 it was “below the threshold”. Further, the pKd in the assay with SNTA1, Q13424 was 4.76; with DLG1_2, Q12959 it was 5.64; with TIAM2, Q8IVF5 it was “below the threshold”; with DLG4_2, P78352, 5.71; with FRMPD3, Q5JV73, “below the threshold”; with DVL3, Q92997 it was “below the threshold”.

The record behind these values is publication PMC9482650, “Quantitative fragmentomics allow affinity mapping of interactomes” (Nature Communications, 2022).
